According to US20230312742A1 (Y MABS THERAPEUTICS, published 2023):
Where a chain is given by its changes, count along the chain named. In names and notes the source's numbering stands.

B1: 8DC3OK (CD3xCD38 bispecific antibody, IgG-L-scFv format, humanized VL5 and VH8) (bispecific antibody)
light: DIQLTQSPSSLSASVGDRVTITCKASEDIYNRLTWYQQKPGKAPKLLISGATSLETGVPSRFSGSGSGKDYTFTISSLQPEDFATYYCQQYWSNPYTFGQGTKLEIKRTVAAPSVFIFPPSDEQLKSGTASVVCLLNNFYPREAKVQWKVDNALQSGNSQESVTEQDSKDSTYSLSSTLTLSKADYEKHKVYACEVTHQGLSSPVTKSFNRGECGGGGSGGGGSGGGGSGGGGSQVQLVQSGGGVVQPGRSLRLSCKASGYTFTRYTMHWVRQAPGKCLEWIGYINPSRGYTNYNQKFKDRFTISRDNSKNTAFLQMDSLRPEDTGVYFCARYYDDHYSLDYWGQGTPVTVSSGGGGSGGGGSGGGGSGGGGSGGGGSGGGGSDIQMTQSPSSLSASVGDRVTITCSASSSVSYMNWYQQTPGKAPKRWIYDTSKLASGVPSRFSGSGSGTDYTFTISSLQPEDIATYYCQQWSSNPFTFGCGTKLQITR
heavy: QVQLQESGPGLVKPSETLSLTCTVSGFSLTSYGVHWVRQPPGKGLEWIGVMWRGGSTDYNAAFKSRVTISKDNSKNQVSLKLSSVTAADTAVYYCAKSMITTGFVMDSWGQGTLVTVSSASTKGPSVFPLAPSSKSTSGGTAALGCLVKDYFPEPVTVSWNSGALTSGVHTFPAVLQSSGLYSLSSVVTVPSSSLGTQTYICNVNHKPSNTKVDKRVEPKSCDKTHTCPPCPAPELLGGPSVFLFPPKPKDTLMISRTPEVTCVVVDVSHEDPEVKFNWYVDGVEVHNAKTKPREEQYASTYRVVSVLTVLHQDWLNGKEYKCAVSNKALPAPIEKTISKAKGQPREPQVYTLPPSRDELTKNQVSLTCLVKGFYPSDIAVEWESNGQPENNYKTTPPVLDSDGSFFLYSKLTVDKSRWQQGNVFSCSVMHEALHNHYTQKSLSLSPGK
notes: Light chain: anti-CD38 VL-CL-(G4S)4-huOKT3 VH-(G4S)6-huOKT3 VL
B2: 8DC-4 (anti-CD38 scFv-(G4S)4-huC825 anti DOTA scFv-linker-P53-linker-His tag) (bispecific antibody)
chain: QVQLQESGPGLVKPSETLSLTCTVSGFSLTSYGVHWVRQPPGKCLEWIGVMWRGGSTDYNAAFKSRVTISKDNSKNQVSLKLSSVTAADTAVYYCAKSMITTGFVMDSWGQGTLVTVSSGGGGSGGGGSGGGGSGGGGSGGGGSGGGGSDIQLTQSPSSLSASVGDRVTITCKASEDIYNRLTWYQQKPGKAPKLLISGATSLETGVPSRFSGSGSGKDYTFTISSLQPEDFATYYCQQYWSNPYTFGCGTKLEIKGGGGSGGGGSGGGGSGGGGSHVQLVESGGGLVQPGGSLRLSCAASGFSLTDYGVHWVRQAPGKGLEWLGVIWSGGGTAYNTALISRFTISRDNSKNTLYLQMNSLRAEDTAVYYCARRGSYPYNYFDAWGCGTLVTVSSGGGGSGGGGSGGGGSGGGGSGGGGSGGGGSQAVVTQEPSLTVSPGGTVTLTCGSSTGAVTASNYANWVQQKPGQCPRGLIGGHNNRPPGVPARFSGSLLGGKAALTLLGAQPEDEAEYYCALWYSDHWVIGGGTKLTVLGTPLGDTTHTSGKPLDGEYFTLQIRGRERFEMFRELNEALELKDAQAGKEPGGSGGAPHHHHHH
notes: SADA construct with VL8 and VH11 (extra disulfide in the anti-CD38 scFv), VH-VL order
B3: L1H1 (antibody, V domains shown)
VH: QVQLQESGPGLVKPSETLSLTCTVSGFSLTSYGVHWIRQPPGKGLEWIGVMWRGGSTDYNPSLKSRVTISKDNSKRQFSLKLSSVTAADTAVYYCAKSMITTGFVMDSWGQGTLVTVSS
VL: DIQMTQSPSSLSASVGDRVTITCRASEDIYNRLTWYQQKPGKAPKLLLSGATSLETGVPSRFSGSGSGKDYTLTISSLQPEDFATYYCQQYWSNPYTFGGGTKVEIK
notes: Humanized AT13/5 IgG, VL1 + VH1
B4: L1H2 (antibody, V domains shown)
VH: B3 VH with I37V, L82M
VL: B3 VL
notes: Humanized AT13/5 IgG, VL1 + VH2
B5: L1H3 (antibody, V domains shown)
VH: B3 VH with L20I, N73T, R76N, V85L
VL: B3 VL
notes: Humanized AT13/5 IgG, VL1 + VH3
B6: L1H4 (antibody, V domains shown)
VH: B3 VH with K71V, N73T, F78V
VL: B3 VL
notes: Humanized AT13/5 IgG, VL1 + VH4
B7: L1H5 (antibody, V domains shown)
VH: B3 VH with K71V, N73T, R76N, L80F, V92I
VL: B3 VL
notes: Humanized AT13/5 IgG, VL1 + VH5
B8: L1H6 (antibody, V domains shown)
VH: B3 VH with I48L, D58N, N73T, R76N
VL: B3 VL
notes: Humanized AT13/5 IgG, VL1 + VH6
B9: L1H7 (antibody, V domains shown)
VH: B3 VH with Q5K, E6Q, D58N, V67L, K71V, N73T, R76N
VL: B3 VL
notes: Humanized AT13/5 IgG, VL1 + VH7
B10: L2H1 (antibody, V domains shown)
VH: B3 VH
VL: B3 VL with T34A, K69T
notes: Humanized AT13/5 IgG, VL2 + VH1
B11: L2H2 (antibody, V domains shown)
VH: B3 VH with I37V, L82M
VL: B3 VL with T34A, K69T
notes: Humanized AT13/5 IgG, VL2 + VH2
B12: L2H3 (antibody, V domains shown)
VH: B3 VH with L20I, N73T, R76N, V85L
VL: B3 VL with T34A, K69T
notes: Humanized AT13/5 IgG, VL2 + VH3
B13: L2H6 (antibody, V domains shown)
VH: B3 VH with I48L, D58N, N73T, R76N
VL: B3 VL with T34A, K69T
notes: Humanized AT13/5 IgG, VL2 + VH6
B14: L2H7 (antibody, V domains shown)
VH: B3 VH with Q5K, E6Q, D58N, V67L, K71V, N73T, R76N
VL: B3 VL with T34A, K69T
notes: Humanized AT13/5 IgG, VL2 + VH7
B15: L3H1 (antibody, V domains shown)
VH: B3 VH
VL: B3 VL with K69T
notes: Humanized AT13/5 IgG, VL3 + VH1
B16: L3H2 (antibody, V domains shown)
VH: B3 VH with I37V, L82M
VL: B3 VL with K69T
notes: Humanized AT13/5 IgG, VL3 + VH2
B17: L3H3 (antibody, V domains shown)
VH: B3 VH with L20I, N73T, R76N, V85L
VL: B3 VL with K69T
notes: Humanized AT13/5 IgG, VL3 + VH3
B18: L3H4 (antibody, V domains shown)
VH: B3 VH with K71V, N73T, F78V
VL: B3 VL with K69T
notes: Humanized AT13/5 IgG, VL3 + VH4
B19: L3H6 (antibody, V domains shown)
VH: B3 VH with I48L, D58N, N73T, R76N
VL: B3 VL with K69T
notes: Humanized AT13/5 IgG, VL3 + VH6
B20: L3H7 (antibody, V domains shown)
VH: B3 VH with Q5K, E6Q, D58N, V67L, K71V, N73T, R76N
VL: B3 VL with K69T
notes: Humanized AT13/5 IgG, VL3 + VH7
B21: L4H1 (antibody, V domains shown)
VH: B3 VH
VL: B3 VL with S49Y
notes: Humanized AT13/5 IgG, VL4 + VH1
B22: L4H2 (antibody, V domains shown)
VH: B3 VH with I37V, L82M
VL: B3 VL with S49Y
notes: Humanized AT13/5 IgG, VL4 + VH2
B23: L4H3 (antibody, V domains shown)
VH: B3 VH with L20I, N73T, R76N, V85L
VL: B3 VL with S49Y
notes: Humanized AT13/5 IgG, VL4 + VH3
B24: L4H4 (antibody, V domains shown)
VH: B3 VH with K71V, N73T, F78V
VL: B3 VL with S49Y
notes: Humanized AT13/5 IgG, VL4 + VH4
B25: L4H5 (antibody, V domains shown)
VH: B3 VH with K71V, N73T, R76N, L80F, V92I
VL: B3 VL with S49Y
notes: Humanized AT13/5 IgG, VL4 + VH5
B26: L4H6 (antibody, V domains shown)
VH: B3 VH with I48L, D58N, N73T, R76N
VL: B3 VL with S49Y
notes: Humanized AT13/5 IgG, VL4 + VH6
B27: L4H7 (antibody, V domains shown)
VH: B3 VH with Q5K, E6Q, D58N, V67L, K71V, N73T, R76N
VL: B3 VL with S49Y
notes: Humanized AT13/5 IgG, VL4 + VH7
B28: 8DC1OK (CD3xCD38 bispecific antibody, IgG-L-scFv format, chimeric AT13/5 VL and VH) (bispecific antibody)
light: DIQLTQSPSSFSVSLGDRVTITCKASEDIYNRLTWYQQKPGNAPRLLISGATSLETGVPSRFSGSGSGKDYTLSITSLQTEDVATYYCQQYWSNPYTFGGGTKLEIRRTVAAPSVFIFPPSDEQLKSGTASVVCLLNNFYPREAKVQWKVDNALQSGNSQESVTEQDSKDSTYSLSSTLTLSKADYEKHKVYACEVTHQGLSSPVTKSFNRGECGGGGSGGGGSGGGGSGGGGSQVQLVQSGGGVVQPGRSLRLSCKASGYTFTRYTMHWVRQAPGKCLEWIGYINPSRGYTNYNQKFKDRFTISRDNSKNTAFLQMDSLRPEDTGVYFCARYYDDHYSLDYWGQGTPVTVSSGGGGSGGGGSGGGGSGGGGSGGGGSGGGGSDIQMTQSPSSLSASVGDRVTITCSASSSVSYMNWYQQTPGKAPKRWIYDTSKLASGVPSRFSGSGSGTDYTFTISSLQPEDIATYYCQQWSSNPFTFGCGTKLQITR
heavy: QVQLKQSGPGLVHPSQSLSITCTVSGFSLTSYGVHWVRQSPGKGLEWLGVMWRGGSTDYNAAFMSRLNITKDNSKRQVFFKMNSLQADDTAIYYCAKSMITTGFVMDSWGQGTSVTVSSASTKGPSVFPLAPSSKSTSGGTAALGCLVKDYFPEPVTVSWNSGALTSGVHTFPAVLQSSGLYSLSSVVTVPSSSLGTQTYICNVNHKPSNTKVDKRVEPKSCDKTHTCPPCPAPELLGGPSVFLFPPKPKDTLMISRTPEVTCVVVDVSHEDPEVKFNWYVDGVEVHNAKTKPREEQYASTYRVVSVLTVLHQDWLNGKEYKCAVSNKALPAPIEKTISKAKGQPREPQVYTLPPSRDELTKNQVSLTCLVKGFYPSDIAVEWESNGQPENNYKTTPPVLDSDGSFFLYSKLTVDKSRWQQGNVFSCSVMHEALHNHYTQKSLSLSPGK
notes: Light chain: anti-CD38 VL-CL-(G4S)4-huOKT3 VH-(G4S)6-huOKT3 VL; also called the chimeric antibody 8DC1OK
B29: Chimeric (chimeric AT13/5 anti-CD38 IgG) (antibody, V domains shown)
VH: QVQLKQSGPGLVHPSQSLSITCTVSGFSLTSYGVHWVRQSPGKGLEWLGVMWRGGSTDYNAAFMSRLNITKDNSKRQVFFKMNSLQADDTAIYYCAKSMITTGFVMDSWGQGTSVTVSS
VL: DIQLTQSPSSFSVSLGDRVTITCKASEDIYNRLTWYQQKPGNAPRLLISGATSLETGVPSRFSGSGSGKDYTLSITSLQTEDVATYYCQQYWSNPYTFGGGTKLEIR
notes: IgG format, captured on anti-human Fc; chimeric VL + chimeric VH (murine AT13/5 variable regions)

What was measured:
[1] = target: T1, human CD38 antigen (recombinant human CD38 protein) (human, UniProt P28907 43-300, limits assumed); assay: SPR, BsAb (1 µg/ml) captured on anti-human Fc chip, human CD38 in solution; average, N=6
[2] = target: T2, CD38 on CD38(+) cancer cells (RPMI8226, Raji, Daudi) (UniProt P28907 1-300, limits assumed); assay: flow cytometry on RPMI8226 cells
T2 construct: whole, on cells; Endogenous CD38 on tumour cell lines; also called CD38(+) tumor cells; CD38(+) Raji cells

[3] = target: T2, CD38 on CD38(+) cancer cells (RPMI8226, …); assay: flow cytometry on Daudi cells, goat anti-human IgG fluorochrome-conjugated secondary antibody
[4] = target: T1, human CD38 antigen (recombinant human …); assay: SPR, His-tagged SADA construct captured on a NiHC200M chip, recombinant human CD38 protein injected
[5] = target: T2, CD38 on CD38(+) cancer cells (RPMI8226, …); assay: flow cytometry on Raji cells, detection with an anti-his tag antibody
[6] = target: T2, CD38 on CD38(+) cancer cells (RPMI8226, …); assay: flow cytometry on RPMI 8226 cells, detection with an anti-his tag antibody
[7] = target: T1, human CD38 antigen (recombinant human …); assay: SPR, His-tagged SADA captured on NiHC200M chip, recombinant human CD38 in solution; average
[8] = target: T1, human CD38 antigen (recombinant human …); assay: SPR, IgG captured on anti-human Fc, human CD38 in solution;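 also: humanized IgG captured on an amine-coupled anti-human Fc HC30M chip, with human CD38 injected as a dilution series from 1000 nM downward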

Binder	Kd [8]	other results
B1	–	Kd [1]: 8.8 nM; koff [1]: 0.0018 s⁻¹; kon [1]: 210000 M⁻¹ s⁻¹; EC50 [2]: 0.167 µg/mL; fold weaker EC50 than the chimeric antibody 8DC1OK [2]: ~2 fold; EC50 (read off the curve) [3]: ~0.1 µg/mL
B2	–	Kd [4]: 0.532 nM; EC50 (read off the curve) [5]: ~0.05 µg/mL; EC50 (read off the curve) [6]: ~0.07 µg/mL; Kd [7]: 0.28 nM; kon [7]: 89000 M⁻¹ s⁻¹
B3	870 nM	–
B4	400 nM	–
B5	810 nM	–
B6	300 nM	–
B7	1800 nM	–
B8	31 nM	–
B9	8500 nM	–
B10	950 nM	–
B11	910 nM	–
B12	830 nM	–
B13	1900 nM	–
B14	390 nM	–
B15	650 nM	–
B16	460 nM	–
B17	1200 nM	–
B18	1200 nM	–
B19	1300 nM	–
B20	100 nM	–
B21	100 nM	–
B22	250 nM	–
B23	200 nM	–
B24	140 nM	–
B25	320 nM	–
B26	580 nM	–
B27	870 nM	–
B28	–	Kd [1]: 1.6 nM; koff [1]: 0.00076 s⁻¹; kon [1]: 470000 M⁻¹ s⁻¹; EC50 [2]: 0.076 µg/mL
B29	2.8 nM	–
